Values belong to the molecule of their own block, whether it stands above or below them.
Legend:
[1] = biological target: Flt-1 on primary mouse liver sinusoidal endothelial cells (LSEC) (mouse) (UniProt P35969); test: cell-based or functional assay
KDR [2] = biological target: T1, KDR (UniProt P35968 20-764, limits assumed); test: soluble radio-immuno receptor-binding assay (RIA); target KDR
T1 construct: also called VEGFR-2; KDR receptor

Flt-1 = biological target: T2, Flt-1 (UniProt P17948 27-758, limits assumed); test: soluble radio-immuno receptor-binding assay (RIA); target Flt-1
T2 construct: also called VEGFR-1; Flt-1 receptor
T2 sequence (P17948 27-758 limits assumed): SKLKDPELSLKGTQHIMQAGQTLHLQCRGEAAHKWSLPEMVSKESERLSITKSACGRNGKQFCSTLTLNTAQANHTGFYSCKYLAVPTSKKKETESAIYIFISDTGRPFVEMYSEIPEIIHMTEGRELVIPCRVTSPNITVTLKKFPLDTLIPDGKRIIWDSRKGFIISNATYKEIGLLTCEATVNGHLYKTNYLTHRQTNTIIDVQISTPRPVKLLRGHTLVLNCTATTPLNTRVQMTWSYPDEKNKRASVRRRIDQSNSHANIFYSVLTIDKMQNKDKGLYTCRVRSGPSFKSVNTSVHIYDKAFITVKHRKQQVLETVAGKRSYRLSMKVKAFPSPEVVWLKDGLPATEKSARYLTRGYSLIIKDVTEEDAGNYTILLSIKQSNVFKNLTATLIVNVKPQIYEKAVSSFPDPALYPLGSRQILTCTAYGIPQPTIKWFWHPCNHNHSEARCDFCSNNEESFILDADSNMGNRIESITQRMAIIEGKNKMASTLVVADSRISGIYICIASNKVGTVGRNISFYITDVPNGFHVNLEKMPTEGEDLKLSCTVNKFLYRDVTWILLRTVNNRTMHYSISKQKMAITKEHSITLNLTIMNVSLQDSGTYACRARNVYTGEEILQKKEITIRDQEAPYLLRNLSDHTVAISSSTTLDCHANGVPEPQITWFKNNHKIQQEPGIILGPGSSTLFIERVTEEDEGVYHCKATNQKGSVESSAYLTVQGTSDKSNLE

KDR [3] = biological target: T1, KDR; test: soluble radio-immuno receptor-binding assay (RIA)
[4] = biological target: T3, Flt-1 on primary mouse liver sinusoidal endothelial cells (LSEC) (mouse, UniProt P35969 23-1333); test: cell-based or functional assay
T3 sequence (looked up): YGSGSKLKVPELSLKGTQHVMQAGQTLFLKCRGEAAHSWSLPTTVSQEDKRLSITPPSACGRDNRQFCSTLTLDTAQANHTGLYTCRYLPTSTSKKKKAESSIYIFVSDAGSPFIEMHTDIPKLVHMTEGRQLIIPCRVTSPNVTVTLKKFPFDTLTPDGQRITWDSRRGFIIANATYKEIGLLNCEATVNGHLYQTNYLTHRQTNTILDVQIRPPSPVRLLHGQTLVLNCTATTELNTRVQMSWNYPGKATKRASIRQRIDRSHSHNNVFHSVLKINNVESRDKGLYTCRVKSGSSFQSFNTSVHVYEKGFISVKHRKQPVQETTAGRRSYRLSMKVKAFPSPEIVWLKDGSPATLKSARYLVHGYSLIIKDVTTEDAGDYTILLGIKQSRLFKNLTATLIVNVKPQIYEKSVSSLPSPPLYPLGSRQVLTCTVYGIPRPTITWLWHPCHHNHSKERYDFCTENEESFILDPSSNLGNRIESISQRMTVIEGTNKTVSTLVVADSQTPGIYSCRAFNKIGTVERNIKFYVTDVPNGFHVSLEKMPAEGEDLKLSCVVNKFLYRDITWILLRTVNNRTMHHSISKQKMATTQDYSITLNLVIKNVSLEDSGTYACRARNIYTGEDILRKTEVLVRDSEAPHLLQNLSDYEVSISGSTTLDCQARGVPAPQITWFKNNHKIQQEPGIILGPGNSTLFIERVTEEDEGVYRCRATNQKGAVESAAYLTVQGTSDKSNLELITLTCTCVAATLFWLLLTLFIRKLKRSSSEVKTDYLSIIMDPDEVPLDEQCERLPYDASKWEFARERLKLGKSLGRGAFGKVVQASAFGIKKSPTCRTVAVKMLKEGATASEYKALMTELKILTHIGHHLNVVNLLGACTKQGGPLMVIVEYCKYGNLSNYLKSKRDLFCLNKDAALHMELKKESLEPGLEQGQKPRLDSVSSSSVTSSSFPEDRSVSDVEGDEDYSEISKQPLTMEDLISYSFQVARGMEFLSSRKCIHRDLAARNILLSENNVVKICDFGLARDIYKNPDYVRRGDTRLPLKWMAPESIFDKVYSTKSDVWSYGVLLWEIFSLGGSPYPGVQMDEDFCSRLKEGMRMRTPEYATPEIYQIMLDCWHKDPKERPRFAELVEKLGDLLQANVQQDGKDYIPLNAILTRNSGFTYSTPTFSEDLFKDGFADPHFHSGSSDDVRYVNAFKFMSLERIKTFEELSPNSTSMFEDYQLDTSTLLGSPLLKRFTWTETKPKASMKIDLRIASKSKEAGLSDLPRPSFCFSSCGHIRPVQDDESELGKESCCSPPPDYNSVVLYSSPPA

T1 sequence (P35968 20-764 limits assumed): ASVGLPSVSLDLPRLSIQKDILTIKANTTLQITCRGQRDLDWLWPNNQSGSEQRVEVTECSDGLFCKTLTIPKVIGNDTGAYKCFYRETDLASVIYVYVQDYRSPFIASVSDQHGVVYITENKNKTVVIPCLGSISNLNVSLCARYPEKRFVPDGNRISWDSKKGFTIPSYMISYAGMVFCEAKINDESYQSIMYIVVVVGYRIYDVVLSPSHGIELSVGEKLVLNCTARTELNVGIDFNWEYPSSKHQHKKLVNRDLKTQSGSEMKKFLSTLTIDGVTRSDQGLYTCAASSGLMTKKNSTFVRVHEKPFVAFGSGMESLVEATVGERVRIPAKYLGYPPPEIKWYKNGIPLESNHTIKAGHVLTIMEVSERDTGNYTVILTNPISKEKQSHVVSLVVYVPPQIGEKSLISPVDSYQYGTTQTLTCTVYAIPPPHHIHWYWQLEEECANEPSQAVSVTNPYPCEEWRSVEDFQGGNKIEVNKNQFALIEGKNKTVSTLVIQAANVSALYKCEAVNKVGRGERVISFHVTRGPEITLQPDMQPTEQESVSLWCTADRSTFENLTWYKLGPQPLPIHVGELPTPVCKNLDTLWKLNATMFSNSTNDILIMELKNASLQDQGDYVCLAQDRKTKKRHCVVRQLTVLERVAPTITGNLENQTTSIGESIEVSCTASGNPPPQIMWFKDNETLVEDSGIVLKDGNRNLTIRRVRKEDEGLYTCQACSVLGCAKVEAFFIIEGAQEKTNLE

induction of HGF mRNA in LSEC (Taqman RT-PCR, 10 ng/ml, 24 h) [1]: 5.5 fold
induction of IL-6 mRNA in LSEC (Taqman RT-PCR, 10 ng/ml, 24 h) [1]: 3.3 fold
Molecule: recombinant human VEGF (from UniProt P15692 181-395) (ligand)

Kd (KDR [2]): 0.5 nM
Kd (Flt-1): 0.4 nM
B1: native VEGF(8-109) (ligand)
chain: GQNHHEVVKFMDVYQRSYCHPIETLVDIFQEYPDEIEYIFKPSCVPLMRCGGCCNDEGLECVPTEESNITMQIMRIKPHQGQHIGEMSFLQHNKCECRPKKD
notes: If that entry includes the signal peptide, 8-109 must be shifted; also called the native protein

fold reduction of KDR-binding affinity against native VEGF(8-109) (KDR [3]): ≥ 470 fold
induction of HGF mRNA in LSEC (Taqman RT-PCR, 10 ng/ml, 24 h) [4]: 5.5 fold
induction of IL-6 mRNA in LSEC (Taqman RT-PCR, 10 ng/ml, 24 h) [4]: 3.3 fold
B2: Flt-sel variant I43A/I46A/Q79A/I83A (ligand)
chain: APMAEGGGQNHHEVVKFMDVYQRSYCHPIETLVDIFQEYPDEAEYAFKPSCVPLMRCGGCCNDEGLECVPTEESNITMAIMRAKPHQGQHIGEMSFLQHNKCECRPKKDRARQENPCGPCSERRKHLFVQDPQTCKCSCKNTDSRCKARQLELNERTCRCDKPRR
notes: VEGF variant with four alanine substitutions, numbered on native VEGF; also called Fit-sel; FIt-sel

— patent US7700571 (Genentech, dated 2010)
